Substitutions are numbered along the chain they refer to. Names may count otherwise. A value given as a limit tells only on which side of the number the result lay.

The target of assay [1] is T1, FcγRIIIa (human, UniProt P08637 17-208).
T1 construct: extracellular domain; also called FcgRIIIa; CD16A; not shown: His tag attached to the C terminus
In words: ratio of SPR KDs: KD of GpH7-G1d/GpL16-k0 divided by KD of this antibody. Put shortly: (§1)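 Biacore SPR at 25 °C in HBS-EP+; antibodies captured on antigen peptide-immobilized CM5 or SA chips, FcγRIIIa flowed as analyte, regeneration with 10 mM glycine-HCl pH 1.5. KD from ka and kd by global 1:1 Langmuir fitting; values are the reference antibody's KD divided by this antibody's KD.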
T1 sequence (P08637 17-208): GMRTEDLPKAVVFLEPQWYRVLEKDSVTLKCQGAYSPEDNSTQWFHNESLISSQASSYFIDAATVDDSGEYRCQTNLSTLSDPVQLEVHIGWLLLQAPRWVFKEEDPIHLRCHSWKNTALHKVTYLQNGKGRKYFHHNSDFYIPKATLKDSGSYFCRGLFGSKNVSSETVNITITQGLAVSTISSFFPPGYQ

Assay [2] addresses T1, FcγRIIIa. Briefly: ratio of SPR KDs: KD of GpH7-A5/GpH7-B3/GpL16-k0 divided by KD of this antibody. The method in brief: as §1
Assay [3] addresses T1, FcγRIIIa. Briefly: ratio of SPR KDs: KD of GpH7-TA7/GpH7-B78/GpL16-k0 divided by KD of this antibody. As for the experimental part: (§2) Analysis of interaction between objective antibody and the FcγR was carried out using Biacore T100 (GE Healthcare). HBS-EP+ (GE Healthcare) was used as the running buffer, and the measurement temperature was set to 25° C. Chips produced by immobilizing the antigen peptide by the amine coupling method to a Series S Sencor Chip CM5 (GE Healthcare), or alternatively, chips produced by allowing preliminarily biotinylated antigen peptides to interact with and immobilize onto a Series S Sensor Chip SA (certified) (GE Healthcare) were used. Antibodies of interest were captured onto an antigen peptide-immobilized chip, and allowed to interact to each FcγR diluted with running buffer. To regenerate and repeatedly use the chip, the antibodies captured on the chip were washed off by reacting 10 mM glycine-HCl, pH 1.5.
Specifically, to calculate association rate constant ka (L/mol/s) and dissociation rate constant kd (1/s), sensorgrams obtained by measurement were processed for global fitting by Biacore Evaluation Software using 1:1 Langmuir binding model and dissociation constant KD (mol/1) was calculated from the resulting values.

The target in assay [4] is T1, FcγRIIIa. Described as above.
Description: First, it was considered which H chain should be introduced with Y296W. GpH7-TA52 (SEQ ID NO: 44) resulting from the introduction of the mutation Y296W into GpH7-TA7 was constructed, and expressed and prepared in combination with GpH7-B78 according to the method described in Reference Example 1. Furthermore, GpH7-TA58 (SEQ ID NO: 45) resulting from the introduction of Y296W into GpH7-B78 was constructed, and expressed and prepared in combination with GpH7-TA22 according to the method described in Reference Example 1. To assess the effects of combinations with Y296W, the prepared antibodies were compared for the FcγRIIIa-binding activity according to the method described in Reference Example 2 (Table 16).
as §2
This is another data set of the same source.

The target of the next assay is FcγRIa (human, UniProt P12314 16-292). Briefly: SPR (Biacore), relative binding.
In assay [5] the target is T1, FcγRIIIa. In words: ratio of SPR KDs: KD of GpH7-TA22/GpH7-B78/GpL16-k0 divided by KD of this antibody.
Description: Then, GpH7-TA54 (SEQ ID NO: 46) resulting from the introduction of Y296W into GpH7-TA22 was constructed, and expressed and prepared in combination with GpH7-B78 according to the method described in Reference Example 1. Furthermore, GpH7-TA58 (SEQ ID NO: 45) resulting from the introduction of Y296W into GpH7-B78 was constructed, and expressed and prepared in combination with GpH7-TA22 according to the method described in Reference Example 1. To assess the effect of combination with Y296W, the prepared antibodies were compared for the FcγRIIIa-binding activity according to the method described in Reference Example 2 (Table 17).
as §2

Assay [6] concerns the target T2, FcγRIIIa (human, UniProt P08637 17-208).
T2 construct: extracellular domain; Soluble extracellular domain with a C-terminal His tag, expressed in FreeStyle293 cells and used as the analyte in Biacore; also called FcgRIIIa; CD16A; not shown: His tag attached to the C terminus
In words: SPR (Biacore); KD of GpH7-TA7/GpH7-B78/GpL16-k0 for FcγRIIIa divided by the KD of this antibody. As for the experimental part:
Then, K334G was also assessed in the same manner. GpH7-TA40 (SEQ ID NO: 47) resulting from the introduction of K334G into GpH7-TA7 was constructed, and expressed and prepared in combination with GpH7-B78 according to the method described in Reference Example 1. Furthermore, GpH7-TA50 (SEQ ID NO: 48) resulting from the introduction of K334G into GpH7-B78 was constructed, and expressed and prepared in combination with GpH7-TA7 according to the method described in Reference Example 1. To assess the effect of combinations with K334G, the prepared antibodies were compared for the FcγRIIIa binding according to the method described in Reference Example 2 (Table 18).
as §2, with “To regenerate and repeatedly use the chip, the antibodies captured on the chip were washed off by reacting 10 mM glycine-HCl, pH 1.5.” left out
T2 sequence (P08637 17-208): as above
In general terms: Surface plasmon resonance follows binding to a sensor surface in real time, without labels.

Chain of FcγRIa (P12314 16-292): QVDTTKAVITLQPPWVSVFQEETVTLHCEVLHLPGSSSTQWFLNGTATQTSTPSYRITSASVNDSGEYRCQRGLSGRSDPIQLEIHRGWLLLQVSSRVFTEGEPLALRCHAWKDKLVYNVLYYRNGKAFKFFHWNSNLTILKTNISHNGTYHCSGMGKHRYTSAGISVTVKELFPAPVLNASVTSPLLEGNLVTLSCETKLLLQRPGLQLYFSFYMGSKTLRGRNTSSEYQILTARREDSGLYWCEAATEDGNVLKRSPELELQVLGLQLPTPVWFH

B1: GpH7-TA7/GpH7-B78/GpL16-k0 (antibody, human IgG1, kappa)
heavy 1: QVQLVQSGAEVKKPGASVTVSCKASGYTFTDYEMHWIRQPPGEGLEWIGAIDPKTGDTAYSESFQDRVTLTADKSTSTAYMELSSLTSEDTAVYYCTRFYSYTYWGQGTLVTVSSASTKGPSVFPLAPSSKSTSGGTAALGCLVKDYFPEPVTVSWNSGALTSGVHTFPAVLQSSGLYSLSSVVTVPSSSLGTQTYICNVNHKPSNTKVDKKVEPKSCDKTHTCPPCPAPEYLWGPSVFLFPPKPKDTLMISRTPEVTCVVVDVSHEDPEVKFNWYVDGVEVHNAKTKPREEQYNATYRVVSVLTVLHQDWLNGKEYKCKVSNKALPAPIEKTISKAKGQPREPQVYTLPPSRKELTKNQVSLTCLVKGFYPSDIAVEWESNGQPENNYKTTPPVLDSDGSFFLYSKLTVDKSRWQQGNVFSCSVMHEALHNRYTQKSLSLSP
heavy 2: B1 heavy 1 with Y232L, W234G, S237D, A296S, A328L, I330E, K354D, R433H, K437E
light: DIVMTQSPLSLPVTPGEPASISCQASESLVHSNRNTYLHWYLQKPGQSPQLLIYKVSNRFSGVPDRFSGSGSGTDFTLKISRVEAEDVGVYYCSQNTHVPPTFGQGTKVEIERTVAAPSVFIFPPSDEQLKSGTASVVCLLNNFYPREAKVQWKVDNALQSGNSQESVTEQDSKDSTYSLSSTLTLSKADYEKHKVYACEVTHQGLSSPVTKSFNRGEC
notes: Anti-glypican-3 IgG1 heterodimer; L234Y/G236W/S298A in H1, S239D/A330L/I332E in H2
As to B1, in the assay with FcγRIIIa [1], the “KD ratio 1” value came to 261 fold. The “KD ratio 2” value with FcγRIIIa [2] is 347 fold. In addition, the KD ratio with FcγRIIIa [3] and with FcγRIIIa [4] was 1 fold throughout.

B2: GpH7-B15/GpL16-k0 (antibody, human IgG1, kappa)
heavy: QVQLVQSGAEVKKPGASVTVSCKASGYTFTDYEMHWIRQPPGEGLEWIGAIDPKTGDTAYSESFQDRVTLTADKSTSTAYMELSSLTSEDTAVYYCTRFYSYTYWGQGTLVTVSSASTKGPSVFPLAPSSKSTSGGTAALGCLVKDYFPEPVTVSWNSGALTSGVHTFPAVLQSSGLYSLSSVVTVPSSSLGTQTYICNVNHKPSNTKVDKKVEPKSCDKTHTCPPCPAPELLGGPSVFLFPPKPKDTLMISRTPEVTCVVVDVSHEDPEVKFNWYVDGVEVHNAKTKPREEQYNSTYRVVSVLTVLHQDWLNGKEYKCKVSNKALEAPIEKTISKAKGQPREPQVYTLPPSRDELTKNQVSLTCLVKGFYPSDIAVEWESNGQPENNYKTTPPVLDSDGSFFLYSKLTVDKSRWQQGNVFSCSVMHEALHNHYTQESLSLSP
light: B1 light
notes: P329E in both H chains
As to B2, in the assay with FcγRIa, the “FcγRIa-binding activity relative to GpH7-A5/GpH7-B3/GpL16-k0” value is no more than 0.2 fold.

B3: GpH7-B14/GpL16-k0 (antibody, human IgG1, kappa)
heavy: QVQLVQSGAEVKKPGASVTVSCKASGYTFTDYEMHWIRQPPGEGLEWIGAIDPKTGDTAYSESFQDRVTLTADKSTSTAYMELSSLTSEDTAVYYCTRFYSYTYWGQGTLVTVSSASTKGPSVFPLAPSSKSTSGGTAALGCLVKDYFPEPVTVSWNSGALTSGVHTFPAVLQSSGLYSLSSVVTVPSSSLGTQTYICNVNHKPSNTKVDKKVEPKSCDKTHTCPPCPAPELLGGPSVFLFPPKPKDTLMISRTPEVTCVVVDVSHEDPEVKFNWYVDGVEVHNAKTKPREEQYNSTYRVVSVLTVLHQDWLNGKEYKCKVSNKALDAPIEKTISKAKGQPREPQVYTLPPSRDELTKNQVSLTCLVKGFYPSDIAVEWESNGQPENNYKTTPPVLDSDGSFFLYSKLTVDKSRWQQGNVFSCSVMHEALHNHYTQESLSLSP
light: B1 light
notes: P329D in both H chains
In the case of B3, in the assay with FcγRIa, the “FcγRIa-binding activity relative to GpH7-A5/GpH7-B3/GpL16-k0” value was no more than 0.2 fold.

B4: GpH7-TA22/GpH7-B78/GpL16-k0 (antibody, human IgG1, kappa)
heavy 1: B1 heavy 1 with S237D
heavy 2: B1 heavy 1 with Y232L, W234G, S237D, A296S, A328L, I330E, K354D, R433H, K437E
light: B1 light
notes: Anti-glypican-3 IgG1 heterodimer; L234Y/G236W/S239D/S298A in H1, S239D/A330L/I332E in H2
Take B4: the values for the KD ratio with FcγRIIIa [3] and in the assay with FcγRIIIa [5] were 3.2 fold and 1 fold, respectively.

B5: GpH7-TA7/GpH7-TA50/GpL16-k0 (antibody, human IgG1, kappa)
heavy 1: B1 heavy 1
heavy 2: B1 heavy 1 with Y232L, W234G, S237D, A296S, A328L, I330E, K332G, K354D, R433H, K437E
light: B1 light
notes: Heterodimerized anti-glypican-3 IgG1 antibody; K334G is in the H chain other than the one with L234Y/G236W/S298A; also called TA7/TA50
For the molecule B5, in the assay with FcγRIIIa [6], the KD ratio was 1.2.

B6: GpH7-TA40/GpH7-B78/GpL16-k0 (antibody, human IgG1, kappa)
heavy 1: B1 heavy 1 with K332G
heavy 2: B1 heavy 1 with Y232L, W234G, S237D, A296S, A328L, I330E, K354D, R433H, K437E
light: B1 light
notes: Heterodimerized anti-glypican-3 IgG1 antibody; K334G is in the same H chain as L234Y/G236W/S298A; also called TA40/B78
With B6, the KD ratio with FcγRIIIa [6] is 0.5.
